Source: US20240409906, “INTEGRASES, LANDING PAD ARCHITECTURES, AND ENGINEERED CELLS COMPRISING THE SAME” (Asimov Inc., published 2024)

Columns and labels:
Details in all cases: tags: C-terminal GS linker-SV40 NLS
[1] = biological target: T1, Int2 (Streptomyces scabiei 87.22); test: cell_activity; attB x attP EGFP inversion reporter, HEK293FT
T1 chain: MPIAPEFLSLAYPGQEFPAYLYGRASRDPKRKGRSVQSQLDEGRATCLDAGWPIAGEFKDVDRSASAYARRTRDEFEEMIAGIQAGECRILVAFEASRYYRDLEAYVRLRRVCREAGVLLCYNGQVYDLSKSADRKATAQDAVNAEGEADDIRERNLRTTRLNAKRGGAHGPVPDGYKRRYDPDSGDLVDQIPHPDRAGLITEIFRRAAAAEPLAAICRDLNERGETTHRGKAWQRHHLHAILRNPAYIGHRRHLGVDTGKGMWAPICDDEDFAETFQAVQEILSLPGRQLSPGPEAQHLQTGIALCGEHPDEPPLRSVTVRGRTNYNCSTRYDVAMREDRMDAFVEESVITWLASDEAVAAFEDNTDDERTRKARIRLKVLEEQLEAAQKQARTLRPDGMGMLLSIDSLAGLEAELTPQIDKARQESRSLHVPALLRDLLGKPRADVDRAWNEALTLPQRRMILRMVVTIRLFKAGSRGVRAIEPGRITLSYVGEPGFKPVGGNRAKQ

[2] = biological target: T2, Int12 (Staphylococcus lugdunensis N920143); test: as above
T2 chain: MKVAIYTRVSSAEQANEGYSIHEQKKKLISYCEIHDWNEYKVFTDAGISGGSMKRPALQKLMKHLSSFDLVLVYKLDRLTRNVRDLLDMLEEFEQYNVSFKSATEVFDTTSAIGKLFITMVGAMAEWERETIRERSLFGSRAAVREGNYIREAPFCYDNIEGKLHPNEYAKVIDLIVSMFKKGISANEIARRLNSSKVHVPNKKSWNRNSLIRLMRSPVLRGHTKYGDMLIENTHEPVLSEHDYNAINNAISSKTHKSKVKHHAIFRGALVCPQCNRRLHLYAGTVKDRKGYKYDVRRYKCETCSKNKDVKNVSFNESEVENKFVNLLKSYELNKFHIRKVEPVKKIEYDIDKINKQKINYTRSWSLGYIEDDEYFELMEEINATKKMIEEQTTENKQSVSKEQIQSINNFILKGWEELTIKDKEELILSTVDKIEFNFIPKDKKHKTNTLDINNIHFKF

[3] = biological target: T3, Int8 (Staphylococcus haemolyticus JCSC1435); test: as above
T3 chain: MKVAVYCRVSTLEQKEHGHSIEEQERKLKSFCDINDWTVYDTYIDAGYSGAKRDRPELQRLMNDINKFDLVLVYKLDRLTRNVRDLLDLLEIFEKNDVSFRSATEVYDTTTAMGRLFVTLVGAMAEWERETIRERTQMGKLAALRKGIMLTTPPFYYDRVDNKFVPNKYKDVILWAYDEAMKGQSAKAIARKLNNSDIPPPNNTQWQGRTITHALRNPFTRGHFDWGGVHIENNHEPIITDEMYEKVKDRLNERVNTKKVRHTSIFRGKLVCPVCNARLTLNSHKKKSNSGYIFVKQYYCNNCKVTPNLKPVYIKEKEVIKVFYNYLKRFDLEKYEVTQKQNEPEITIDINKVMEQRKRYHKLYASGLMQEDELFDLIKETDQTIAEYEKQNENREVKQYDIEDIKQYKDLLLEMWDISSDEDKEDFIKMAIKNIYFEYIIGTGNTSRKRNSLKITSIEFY

[4] = biological target: T4, Int3 (Streptococcus pyogenes M1 GAS (phage …)); test: cell_activity
T4 chain: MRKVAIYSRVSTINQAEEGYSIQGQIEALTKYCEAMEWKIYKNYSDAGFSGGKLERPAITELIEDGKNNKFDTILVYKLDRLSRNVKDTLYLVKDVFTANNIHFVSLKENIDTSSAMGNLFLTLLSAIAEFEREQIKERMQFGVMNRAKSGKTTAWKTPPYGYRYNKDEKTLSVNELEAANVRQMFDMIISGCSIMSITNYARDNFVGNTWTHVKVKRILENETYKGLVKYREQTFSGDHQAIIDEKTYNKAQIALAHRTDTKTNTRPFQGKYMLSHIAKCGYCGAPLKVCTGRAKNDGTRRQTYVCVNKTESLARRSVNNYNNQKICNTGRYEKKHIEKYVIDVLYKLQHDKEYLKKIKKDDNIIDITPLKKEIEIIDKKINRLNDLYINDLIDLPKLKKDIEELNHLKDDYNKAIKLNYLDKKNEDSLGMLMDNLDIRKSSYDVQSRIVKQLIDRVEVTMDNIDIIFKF

[5] = biological target: Int11 (Clostridium botulinum B str. Eklund 17B); test: cell_activity; attB x attP EGFP inversion reporter, HEK293FT
[6] = biological target: T5, Int9 (Staphylococcus aureus str. Newman); test: cell_activity
T5 chain: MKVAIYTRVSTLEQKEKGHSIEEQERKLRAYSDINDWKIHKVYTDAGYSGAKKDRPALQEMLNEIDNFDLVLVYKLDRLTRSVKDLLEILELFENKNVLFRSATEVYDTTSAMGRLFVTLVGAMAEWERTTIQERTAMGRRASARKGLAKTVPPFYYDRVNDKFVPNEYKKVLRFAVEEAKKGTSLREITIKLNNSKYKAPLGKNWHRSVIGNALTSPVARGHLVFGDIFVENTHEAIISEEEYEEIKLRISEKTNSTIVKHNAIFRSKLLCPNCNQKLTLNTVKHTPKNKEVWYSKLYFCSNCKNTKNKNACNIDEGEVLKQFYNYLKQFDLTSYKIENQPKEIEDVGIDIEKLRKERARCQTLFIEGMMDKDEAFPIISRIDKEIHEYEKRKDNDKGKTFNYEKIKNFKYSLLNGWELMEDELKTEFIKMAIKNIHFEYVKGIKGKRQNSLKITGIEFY

[7] = biological target: T6, Int10 (Streptococcus pneumoniae 670-6B); test: cell_activity
T6 chain: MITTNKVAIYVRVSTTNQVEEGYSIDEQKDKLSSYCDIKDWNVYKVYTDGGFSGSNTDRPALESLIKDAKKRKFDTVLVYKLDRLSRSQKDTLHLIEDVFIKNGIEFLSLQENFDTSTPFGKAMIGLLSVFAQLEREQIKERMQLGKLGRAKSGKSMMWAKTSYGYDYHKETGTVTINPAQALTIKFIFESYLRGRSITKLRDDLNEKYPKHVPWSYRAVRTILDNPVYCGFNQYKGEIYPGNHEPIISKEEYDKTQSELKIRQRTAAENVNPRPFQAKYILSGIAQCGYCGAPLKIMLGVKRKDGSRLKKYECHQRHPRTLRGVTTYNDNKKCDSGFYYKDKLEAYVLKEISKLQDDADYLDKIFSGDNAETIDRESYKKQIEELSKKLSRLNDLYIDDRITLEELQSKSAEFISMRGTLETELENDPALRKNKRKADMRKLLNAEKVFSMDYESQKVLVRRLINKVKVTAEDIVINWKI

B1: Int2 attB (dsDNA)
DNA 1: GGACGGCGCAGAAGGGGAGTAGCTCTTCGCCGGACCGTCGACATACTGCTCAGCTCGTC
DNA 2: GACGAGCTGAGCAGTATGTCGACGGTCCGGCGAAGAGCTACTCCCCTTCTGCGCCGTCC
- binding signal [1]: 0.17 fraction of Bxb1

B2: Int12 attB (dsDNA)
DNA 1: GTTCGTGGTAACTATGGGTGGTACAGGTGCCACATTAGTTGTACCATTTATGTTTATGTGGTTAAC
DNA 2: GTTAACCACATAAACATAAATGGTACAACTAATGTGGCACCTGTACCACCCATAGTTACCACGAAC
- binding signal [2]: 0.821 fraction of Bxb1

B3: Int12 attP (dsDNA)
DNA 1: TTTTTGTATGTTAGTTGTGTCACTGGGTAGACCTAAATAGTGACACAACTGCTATTAAAATTTAA
DNA 2: TTAAATTTTAATAGCAGTTGTGTCACTATTTAGGTCTACCCAGTGACACAACTAACATACAAAAA
- binding signal [2]: 0.821 fraction of Bxb1

B4: Int8 attP (dsDNA)
DNA 1: TTAATAAACTATGGAAGTATGTACAGTCTTGCAATGTTGAGTGAACAAACTTCCATAATAAAAT
DNA 2: ATTTTATTATGGAAGTTTGTTCACTCAACATTGCAAGACTGTACATACTTCCATAGTTTATTAA
- binding signal [3]: 0.068 fraction of Bxb1

B5: Int2 attP (dsDNA)
DNA 1: GCTCATGTATGTGTCTACGCGAGATTCTCGCCCGAGAACTTCTGCAAGGCACTGCTCTTGGCT
DNA 2: AGCCAAGAGCAGTGCCTTGCAGAAGTTCTCGGGCGAGAATCTCGCGTAGACACATACATGAGC
- binding signal [1]: 0.17 fraction of Bxb1

B6: Int3 attB (dsDNA)
DNA 1: GTTTGTAAAGGAGACTGATAATGGCATGTACAACTATACTCGTCGGTAAAAAGGCATCTTAT
DNA 2: ATAAGATGCCTTTTTACCGACGAGTATAGTTGTACATGCCATTATCAGTCTCCTTTACAAAC
- binding signal [4]: 1.11 fraction of Bxb1

B7: Int11 attB (dsDNA)
DNA 1: ATGGATTTTGCAGATTCCCAGATGCCCCTACAGAAAGAGGTACAAAACATTTATTGGAATTAATT
DNA 2: AATTAATTCCAATAAATGTTTTGTACCTCTTTCTGTAGGGGCATCTGGGAATCTGCAAAATCCAT
- binding signal [5]: 1.81 fraction of Bxb1

B8: Int8 attB (dsDNA)
DNA 1: CAATCATCAGATAACTATGGCGGCACGTGCATTAACCACGGTTGTATCCCGTCTAAAGTACTCGT
DNA 2: ACGAGTACTTTAGACGGGATACAACCGTGGTTAATGCACGTGCCGCCATAGTTATCTGATGATTG
- binding signal [3]: 0.068 fraction of Bxb1

B9: Int9 attP (dsDNA)
DNA 1: GTGGTTGTTTTTGTTGGAAGTGTGTATCAGGTATCTGCATAGTTATTCCGAACTTCCAATTA
DNA 2: TAATTGGAAGTTCGGAATAACTATGCAGATACCTGATACACACTTCCAACAAAAACAACCAC
- binding signal [6]: 0.08 fraction of Bxb1

B10: Int10 attP (dsDNA)
DNA 1: GGAAAATATAAATAATTTTAGTAACCTACATCTCAATCAAGGATAGTAAAACTCTCACTCTT
DNA 2: AAGAGTGAGAGTTTTACTATCCTTGATTGAGATGTAGGTTACTAAAATTATTTATATTTTCC
- binding signal [7]: 5.49 fraction of Bxb1

B11: Int11 attP (dsDNA)
DNA 1: GTTTATATGTTTACTAATAAGACGCTCTCAACCCATAAAGTCTTATTAGTAAACATATTTCAACT
DNA 2: AGTTGAAATATGTTTACTAATAAGACTTTATGGGTTGAGAGCGTCTTATTAGTAAACATATAAAC
- binding signal [5]: 1.81 fraction of Bxb1

B12: Int3 attP (dsDNA)
DNA 1: ATGGATAAAAAAATACAGCGTTTTTCATGTACAACTATACTAGTTGTAGTGCCTAAATAATGCTT
DNA 2: AAGCATTATTTAGGCACTACAACTAGTATAGTTGTACATGAAAAACGCTGTATTTTTTTATCCAT
- binding signal [4]: 1.11 fraction of Bxb1

B13: Int10 attB (dsDNA)
DNA 1: AGCACGCTGATAATCAGCAAGACCACCAACATTTCCACCAATGTAAAAGCTTTAACCTTAGC
DNA 2: GCTAAGGTTAAAGCTTTTACATTGGTGGAAATGTTGGTGGTCTTGCTGATTATCAGCGTGCT
- binding signal [7]: 5.49 fraction of Bxb1

B14: Int9 attB (dsDNA)
DNA 1: TTTATATTGCGAAAAATAATTGGCGAACGAGGTAACTGGATACCTCATCCGCCAATTAAAATTTG
DNA 2: CAAATTTTAATTGGCGGATGAGGTATCCAGTTACCTCGTTCGCCAATTATTTTTCGCAATATAAA
- binding signal [6]: 0.08 fraction of Bxb1
